# Legend:
# [1] = molecular target: adenosine A2A receptor (Homo sapiens (Human)) (UniProt P29274); test: flow cytometry, HEK293-A2a cells; Parent Singlets in the same table: 230
# [2] = molecular target: adenosine A2A receptor (Homo sapiens (Human)) (UniProt P29274); test: flow cytometry, HEK293-A2a cells; Parent Singlets in the same table: 230; same picture as FIG. 16O
# [3] = molecular target: adenosine A2A receptor (Homo sapiens (Human)) (UniProt P29274); test: cell-based or functional assay
# Chain of adenosine A2A receptor (Homo sapiens (Human)) (P29274 whole entry): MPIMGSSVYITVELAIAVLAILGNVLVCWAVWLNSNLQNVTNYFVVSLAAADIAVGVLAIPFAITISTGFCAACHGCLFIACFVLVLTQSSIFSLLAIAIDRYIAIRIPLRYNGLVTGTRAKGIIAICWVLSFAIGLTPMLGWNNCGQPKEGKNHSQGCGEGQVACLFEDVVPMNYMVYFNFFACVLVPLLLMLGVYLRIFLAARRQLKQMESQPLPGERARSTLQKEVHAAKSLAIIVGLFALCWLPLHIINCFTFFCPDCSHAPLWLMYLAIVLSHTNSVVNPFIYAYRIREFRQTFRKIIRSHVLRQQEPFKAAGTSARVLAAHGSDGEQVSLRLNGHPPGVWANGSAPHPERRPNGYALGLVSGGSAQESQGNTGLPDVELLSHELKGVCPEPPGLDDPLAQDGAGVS
Substance,Median : RL1-H (A2a Singlets) [1],Median : RL1-H (A2a Singlets) [2],"Absolute IC50, A2A cAMP antagonist titration (as in Example 16: titrated IgG, fixed NECA) [3]","Absolute IC50, LANCE allosteric cAMP assay, titrated IgG then fixed NECA concentration [3]","Absolute IC50, cAMP allosteric A2A assay (as in Example 15: fixed IgG, NECA titration) [3]","Absolute IC50 of NECA titration in cAMP assay, cells pre-incubated with fixed 100 nM IgG [3]"
Human Adenosine A2aR monoclonal (MAB9497) (antibody),7500,7500,–,–,–,–
R&D control antibody,–,–,9.43,9.43,0.513,2.25
